Data: patent US10487307B2, “Culture method for pluripotent stem cells” (FUJIFILM CORPORATION, priority 2013, dated 2019)

Legend:
[1] = Evaluation of adsorbability with respect to cell culture surface (OPA fluorescence); format: physicochemical; conditions: FIG. 1; 0 to 200 pmol/cm^2 added, 2 hours at 37° C., washed twice with PBS
Method: Each of the polypeptides of RCP-1 to RCP-11 and RCP-21 to RCP-26 obtained as above was diluted with a predetermined buffer such that they could be added to wells at a predetermined final concentration of 0 pmol/cm^2 to 200 pmol/cm^2. Thereafter, each of the polypeptides was added in an amount of 64 μL to a plasma-treated 96-well plate made of polystyrene (Tissue Culture-Treated, Falcon). Each of the polypeptides was allowed to adsorb onto the plate by being incubated for 2 hours at 37° C., and then the wells were washed twice with PBS, thereby obtaining surfaces coated with each of the polypeptides of RCP-1 to RCP-11 and RCP-21 to RCP-26.
Among the surfaces coated with each of the polypeptides obtained as above, the surfaces coated with RCP-1 and RCP-21 to RCP-26 were applied with 64 μL of a borate buffer and 64 μL of 1 N NaOH, followed by incubation for 24 hours at 80° C. and 100% humidity. After the resultant was air-cooled, 75 μL of a borate buffer was added to each well, and 50 μL of a reaction solution obtained by mixing OPA (o-phthalaldehyde: Wako Pure Chemical Industries, Ltd./methanol solution (160 mg/ml)) with N-acetyl-L-cysteine (NAC: Wako Pure Chemical Industries, Ltd.)/borate buffer solution (2 mg/ml) at a ratio of 1:100 (mass ratio) was further added thereto. After incubation for 30 minutes at 40° C., the fluorescence intensity thereof was measured by using an Envision Multilabel Counter (PerkinElmer Inc.) (excitation 355 nm/fluorescence 486 nm). A calibration curve was separately prepared from each of the polypeptide solutions so as to calculate the amount of the polypeptide adsorbed. In FIG. 1, a black rhombus indicates RCP-1, a black square indicates RCP-21, a black triangle indicates RCP-22, a black circle indicates RCP-23, a white rhombus indicates RCP-24, a white square indicates RCP-25, and a white triangle indicates RCP-26.

iPS cells [2] = assay: Cell adhesiveness evaluation 3 (RCP-1 added amount); format: cell-based, human; conditions: for Cell adhesion rate (%): natural vitronectin 130 pmol/cm^2 = 100%, n=3
Method: The cell adhesiveness was evaluated in the same manner as in <Cell adhesiveness evaluation 1>, except that RCP-1 was used after the concentration thereof was adjusted to 125 pmol/cm^2 to 1,000 pmol/cm^2 by using PBS. In Table 10, the cell adhesion rate is expressed as a ratio calculated by regarding a cell adhesion rate with respect to the cell culture surface, onto which natural vitronectin is adsorbed at a concentration of 130 pmol/cm^2, as being 100%. n=3.

iPS cells [3] = assay: Evaluation of maintenance of undifferentiated state (reference examples); format: cell-based, human
Method: iPS cells collected in the same manner as in <Cell adhesiveness evaluation 1> were suspended in TeSR2. The iPS cells were seeded into 6-well plate (Tissue culture-treated, Falcon), onto which each of the samples 1, 2, 5, 6, and 7 used in <Cell adhesiveness evaluation 1> was adsorbed in the same manner as in <Cell adhesiveness evaluation 1>, and cultured in a CO2 incubator at 37° C. Except for the day after the seeding, the medium was replaced every day. In the same method as described above, the cells were subcultured every six days.
After being cultured for 1 month under the conditions described above, the cells were immobilized using 4% paraformaldehyde and treated with 1% Triton-X/PBS so as to enhance the membrane permeability. After the cells were subjected to a blocking treatment using an Image IT Signal Enhancer (Invitrogen), an anti-human NANOG antibody (AF 1997, R&D Systems, Inc.), an Alexa Fluor 555 binding rabbit anti-goat IgG antibody (Invitrogen), and DAPI (4′,6-diamidino-2-phenylindole, Dojindo Molecular Technologies, Inc.) were added thereto for labeling, and the cells were imaged using a fluorescence microscope.
FIGS. 3A and 4A show the iPS cells cultured on RCP-1; FIGS. 3B and 4B show the iPS cells cultured on RCP-11; FIGS. 3C and 4C show the iPS cells cultured on natural human vitronectin; FIGS. 3D and 4D show the iPS cells cultured on rLaminin-5; and FIGS. 3E and 4E show the iPS cells cultured on rLaminin-511. The scale bar in the images indicates […]. In FIGS. 3A to 3E, the images on the left side are full images of the colony, and the images on the right side are magnified images. In FIGS. 4A to 4E, the images on the left side are images of the cells stained with DAPI, and the images on the right side are images of the cells stained with an anti-NANOG antibody. The scale bar in FIGS. 3A to 4E indicates 200 μm.

[4] = Evaluation 2 about amount of residual polypeptide adsorbed (2-mercaptoethanol in PBS); format: physicochemical; conditions: PBS with 2-mercaptoethanol 8.96 μM to 89.6 mM, 37° C.; FIG. 7
Method: A cell culture surface coated with RCP-11 was prepared in the same manner as in Example 3, and then PBS containing 2-mercaptoethanol was added thereto such that the final concentration of 2-mercaptoethanol became 89.6 mM (0.7% by mass), 8.96 mM (0.07% by mass), 895.94 μM (0.007% by mass), 89.59 μM (0.0007% by mass), or 8.96 μM (0.00007% by mass), followed by incubation at 37° C. for a predetermined time. Thereafter, in the same manner as in Example 3, the amount of RCP-11 adsorbed was determined, and the residual rate of the polypeptide adsorbed was obtained. In FIG. 7, the amount of residual RCP-11 adsorbed is expressed as a ratio calculated by regarding the amount of RCP-11 adsorbed immediately after the starting of incubation as being 100%. Furthermore, “2-ME” indicates 2-mercaptoethanol.

iPS cells [5] = assay: Example 5: cell growth on pretreated RCP-11 surface; format: cell-based, human
Method: Meanwhile, in the same manner as in <Cell growth property evaluation 1> of Example 3, iPS cells were collected and suspended in Essential 8. The iPS cells were then seeded into the respective wells, to which 2-mercaptoethanol was added so as to accelerate the desorption of RCP-11, at a cell density of 10,000 cells/well, thereby starting culture.
After the cells were cultured for 72 hours, the number of cells was quantified in the same manner as in <Cell growth property evaluation 1> of Example 3. In the table, each of the residual rate of RCP-11 adsorbed and the cell growth rate is expressed as a ratio calculated by regarding the residual rate of the polypeptide adsorbed and the cell growth rate in the case where the pretreatment with PBS is performed as being 100%.

Molecule | adsorbability with respect to the plate [1] | Cell adhesion rate (%) (iPS cells [2]; added amount 125 pmol/cm^2) | Cell adhesion rate (%) (iPS cells [2]; added amount 250 pmol/cm^2) | Cell adhesion rate (%) (iPS cells [2]; added amount 500 pmol/cm^2) | Cell adhesion rate (%) (iPS cells [2]; added amount 1000 pmol/cm^2) | adhesiveness of iPS cells (iPS cells [2]; added amount equal to or greater than 125 pmol/cm^2) | form of iPS cell colony (iPS cells [3]; TeSR2, subcultured every six days, FIGS. 3A to 3E) | NANOG expression (iPS cells [3]; cultured for 1 month in TeSR2, anti-NANOG staining, FIGS. 4A to 4E) | amount of residual RCP-11 versus 2-mercaptoethanol concentration [4] | Cell growth rate (%) (iPS cells [5]; pretreatment 2-Mercaptoethanol 8.96 μM (0.00007% by mass), Essential 8, 72 hours, PBS pretreatment = 100%) | Cell growth rate (%) (iPS cells [5]; pretreatment 2-Mercaptoethanol 895.94 μM (0.007% by mass), Essential 8, 72 hours, PBS pretreatment = 100%) | Cell growth rate (%) (iPS cells [5]; pretreatment 2-Mercaptoethanol 89.6 mM (0.7% by mass), Essential 8, 10,000 cells/well, 72 hours, PBS pretreatment = 100%) | Cell growth rate (%) (iPS cells [5]; pretreatment PBS, Essential 8, 72 hours, this = 100%)
RCP-1: recombinant polypeptide for culture, SEQ ID NO: 15; human vitronectin positions 1-55 and 269-459 with N-terminal methionine (protein, Vitronectin-derived Recombinant Protein (RCP-1)) MDQESCKGRCTEGFNVDKKCQCDELCSYYQSCCTDYTAECKPQVTRGDVFTMPEDEPSQEECEGSSLSAVFEHFAMMQRDSWEDIFELLFWGRTSAGTRQPQFISRDWHGVPGQVDAAMAGRIYISGMAPRPSLAKKQRFRHRNRKGYRSQRGHSRGRNQNSRRPSRATWLSLFSSEESNLGANNYDDYRMDWLVPATCEPIQSVFFFSGDKYYRVNLRTRRVDTVDPPYPRSIAQYWLGCPAPGHL | excellent adsorbability | 90.3 ± 25.3 | 89.2 ± 10.6 | 108.8 ± 23.0 | 98.5 ± 17.2 | equivalent to the cell adhesion rate of the natural vitronection | form specific to undifferentiated cells | strongly expressed NANOG in the entirety of the colony |  |  |  |  | 
RCP-11: recombinant polypeptide for culture, SEQ ID NO: 25; vitronectin positions 1-55, 269-277, 295-341, 342-373, C274S (protein, Vitronectin-derived Recombinant Protein (RCP-11), vitronectin positions 1-55, 269-277, 295-341, 342-373, C274S) MDQESCKGRCTEGFNVDKKCQCDELCSYYQSCCTDYTAECKPQVTRGDVFTMPEDESQEESEGSEDIFELLFWGRTSAGTRQPQFISRDWHGVPGQVDAAMAGRIYISGMAPRPSLAKKQRFRHRNRKGYRSQRGHSRGRNQN |  |  |  |  |  |  |  |  | tends to decrease as the concentration of 2-mercaptoethanol increases | 85.2 | 70.7 | 38.0 | 100
